Results reported in PMC2783589.

Target: revised CpaD from Aspergillus flavus NRRL3357 (full length, with the 43 N-terminal residues added) (Aspergillus flavus NRRL3357)
Test: SEC

Substance: revised CpaD from Aspergillus flavus NRRL3357 (full length, with the 43 N-terminal residues added) (enzyme)
- stoichiometry N: 2
